This is an account of results in the nanobody polyreactivity screen of Harvey et al. (2022).

A short description of the series: yeast display, Sf9 membrane polyspecificity reagent, FACS + sequencing; frameworks hold sequencing errors. The method in brief:
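Nanobodies from a synthetic yeast display library (Saccharomyces cerevisiae BJ5465), induced 36–48 hours with galactose, were stained 1 hour at 4 °C with 10% biotinylated, detergent-solubilized Sf9 membrane reagent, enriched on streptavidin microbeads, then FACS-sorted. Anti-HA (expression) and streptavidin (reagent binding) fluorescence set low and high (top ~1%) gates. Polyreactivity labels come from the gate of origin. Genes were colony-PCR amplified, MiSeq 2 × 250 sequenced and filtered by CDR length.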
“QVQLVESGGGLVQAGGSLRLSCAASGFTFWNNAMGWYRQAPGKERELVAAISWSGGSTYYADSVKGRFTISRDNAKNTFDLQMNRLKPEDSAVYYCAAGDGPWLPRVHYGGYGYWGQGTQVTVSS”: the “polyreactivity (PSR sort gate)” value is “high polyreactivity”.

“QVQLVESGGGLVQAGGSLRLSCAASGFTFWPNAMGWYRQAPGKERELVAAINWSGGSTYYADSVKGRFTISRDNAKYTVSLQKNSLKPEDTAVYYCAADYVTNITFDGFNKYDYWGQGTQVTVSS”: the “polyreactivity (PSR sort gate)” value was “low polyreactivity”.

On to “QVQLVESGGGLVQAGGSLRLSCAASGFTFWRYAMGRYRQAPGKERELVAGISSGGSTNYADSVKGRFTISRDNAKNTVYLQMNSLKPEDTAVYYCAARGNYFYGIYGYWGQGTQVTVSS”, for which the “polyreactivity (PSR sort gate)” value is listed as “low polyreactivity”. For the sequence “QVQLVESGGGLVQAGGSLRLSCAASGFTFWTYAMGWYRQAPGKERELVAAIDSGGSTYYADSVKGRFTISRDNAKNTVYLQMNSVKPEDTAVYYCNAGPSVTSGYDYDYWGQGTQVTVSS”, the “polyreactivity (PSR sort gate)” value is “low polyreactivity”. Turning to “QVQLVESGGGLVQAGGSLRLSCAASGFTFWYNAMGWYRQAPGKERELVAAITSAGSTSYADSVKGRFTISRDNAKNTVYLQMNSLKPEDTAVYYCNADLASSFSRANKYDYWGQGTQVTVSS”, the “polyreactivity (PSR sort gate)” value is “low polyreactivity”.

Consider “QVQLVESGGGLVQAGGSLRLSCAASGFTFWYYAMGWYRQAPGKEREMVAAISRSGTSTYYADSVKGRFTISRDNAKNTVYLQMNSLKPEDSAVYYCNVLRVKSITYLMDYWGQGTQVTVSS”, for which the “polyreactivity (PSR sort gate)” value is on record as “high polyreactivity”. Regarding “QVQLVESGGGLVQAGGSLRLSCAASGFTFYANAMGWYRQAPGKERELVAAISRGVSTTYADSVKGRFTISRDNAKNTVYLQMNRLKPEDTAVYYCAADGNVIAQGYDYWGQGTQVTVSS”, the “polyreactivity (PSR sort gate)” value is “low polyreactivity”. The entry for “QVQLVESGGGLVQAGGSLRLSCAASGFTFYANAMGWYRQAPGKERELVAAITSSGGSTYYADSVKGRFTISRDNAKNTVYLQMNSLKPEDSAVYYCNSLRLYSIPRLYGYWGQGTQVTVSS” is “high polyreactivity”; for “QVQLVESGGGLVQAGGSLRLSCAASGFTFYAYAMGWYRPAPGKERELVAALTGRGGSTYYADSVKGRFTISRDNAKNTVYLQMNSLKPEDTAVYYCNKVKQSDKFNNFSNDYWGQGTQVTVSS” it is “high polyreactivity”; for “QVQLVESGGGLVQAGGSLRLSCAASGFTFYAYAMGWYRQAPGKERELVAVITGGGSTYYADSVKGRFTISRDNAKNTVYLQMNSLKPEDTAVYYCAATYRGWLVGNGVWYWYYYWGQGTQVTVSS” it is “high polyreactivity”. With “QVQLVESGGGLVQAGGSLRLSCAASGFTFYDYAMGWYRQAPGKERELVAAISWDGDRTYYADSVNGRFTISRDNAKNTVYLQMNSLKPEDTAVYYCNAEYSSFSDVQKDSDMDYWGQGTQVTVSS”, the “polyreactivity (PSR sort gate)” value is “low polyreactivity”. With “QVQLVESGGGLVQAGGSLRLSCAASGFTFYFYAMGWYRQAPGKERELVAAISRGGSTTYADSVKGRFTISRDNAKNTVYLQMNSLKPEDTAVYYCAKDRRRWYYTRDYWGQGTQVTVSS”, the “polyreactivity (PSR sort gate)” value is reported as “low polyreactivity”.

With “QVQLVESGGGLVQAGGSLRLSCAASGFTFYGNAMGWYRQAPGKERELVAAISLSDGYADSVKGRFTISRDNAKNTVYLLMNSLKPEDTAVYYCAKDRTDSKRREHDYWGQGTQVTVSS”, the “polyreactivity (PSR sort gate)” value was “low polyreactivity”. “QVQLVESGGGLVQAGGSLRLSCAASGFTFYGYAMGWYRQAPGKDRELVARITVRGSTTYYADSVKGRFTISRDNAKNTVYLQMNSLKPEDTAFYYCNASWVYSRFRPLDYDLDYWGQGTQVTVSS”: the “polyreactivity (PSR sort gate)” value is “low polyreactivity”.

For “QVQLVESGGGLVQAGGSLRLSCAASGFTFYGYAMGWYRQAPGKERELVAAITSGGSTNYADSVKGRFTISRDNAKNTVYLQMNSLKPEDTAVYYCAASPSYWYLYVNYSYDYWGQGTQVTVSS”, the “polyreactivity (PSR sort gate)” value is “high polyreactivity”. Then “QVQLVESGGGLVQAGGSLRLSCAASGFTFYGYGMGWYRPAPGKERELVAVITSGGSTKYADSVKGRFTISRDNAKNTVYLQMNSLKPEDTAVYYCNVVGGRYLYSAYDYWGQGTQVTVSS”, with “low polyreactivity”; and “QVQLVESGGGLVQAGGSLRLSCAASGFTFYIYAMGWYRPAPRNERELLAAITGSGGRTYYADSVKGRFTISRDYAKNTVYLQMNRLKPEETAVYYSNVLLQRVYGTEPSFDYWGQGTQVTVSS”, with “high polyreactivity”; and “QVQLVESGGGLVQAGGSLRLSCAASGFTFYIYGMGWYRPAPGKERELVAAITWSGGRTYYADSVKGRFTISRDNAKNTVYLHMNSLKPEDTAVYYCAASYPGLSYHKYEYWGHGTQVTVSS”, with “high polyreactivity”. In the case of “QVQLVESGGGLVQAGGSLRLSCAASGFTFYKNTMGWYRQAPAKARELVAAISSSGSSTYYADSVKGRFTISRDYAKNTVYLQMNSLKPEDTAVYYCAAGRFAYHDDYWGQGTQVTVSS”, the “polyreactivity (PSR sort gate)” value is “high polyreactivity”.

Consider “QVQLVESGGGLVQAGGSLRLSCAASGFTFYKNTMGWYRQAPGKERELVAAISGSGGRTYYADSVKGRFTISRDNAKNTVYLQMNSLKPEDTAVYYCNAAARYRWQYDYSLYEYGHWGQGTQVTVSS”, for which the “polyreactivity (PSR sort gate)” value is listed as “high polyreactivity”.

For the sequence “QVQLVESGGGLVQAGGSLRLSCAASGFTFYKYAMGWYRQAPGKEREFVAAISSSGDSTYYADSVKGRFTISRDNAKNTVYLQMNSLKPEDTAVYYCAARRRGTSTTWGQGTQVTVSS”, the “polyreactivity (PSR sort gate)” value is given as “high polyreactivity”.

Turning to “QVQLVESGGGLVQAGGSLRLSCAASGFTFYKYAMGWYRQAPGKERELVAGISSRGTRTYYADSVKGRFTISRDNAKNTVYLQMNSLKPEDTAVYDCAADSNTVNYDYWGQGTQVTVSS”, the “polyreactivity (PSR sort gate)” value is listed as “high polyreactivity”. For the sequence “QVQLVESGGGLVQAGGSLRLSCAASGFTFYLYAMGWYRPAPGKERELVAAITYSAGSTYYADSVKGRFTISRDNEKNTVYLQMNSLKPEDTAVFSCAKRGHYRAWGGGGYWGQGTQVTVSS”, the “polyreactivity (PSR sort gate)” value was “low polyreactivity”. As for “QVQLVESGGGLVQAGGSLRLSCAASGFTFYLYGMGGYRQAPGKERELVAAIRSGGSTNYADSVKGRFSISRDNAKNTVYLQMNSLKPEDTAVYYCATDIHSVHNNRDKPDYDYWGQGSQVTVSS”, the “polyreactivity (PSR sort gate)” value is “low polyreactivity”. As to “QVQLVESGGGLVQAGGSLRLSCAASGFTFYLYTMGWYRQAPGKERQLVAAISGSGGSTYYADSVKGRFTISRDNAKITVYLQMNSLKPEDTAVYYCAASPVRVGKVIDRRDYWGQGTQVTVSS”, the “polyreactivity (PSR sort gate)” value is “high polyreactivity”. The entry for “QVQLVESGGGLVQAGGSLRLSCAASGFTFYLYVMGWYRQAPGTEREFVAAITGSGTSTYYADSVKGRFTISRDNAKNTVYLQMNSLKPEDTAVYYCNAKRDRYFYTVKYDYWGQGTQVTVSS” is “low polyreactivity”. For the sequence “QVQLVESGGGLVQAGGSLRLSCAASGFTFYPNAMGWYRQAPGKERELVAAISRSGSSTYYADSVKGRFTISRDNAKNTVYLQMNSLKPEDTAVYYCNRYGRQYDFYYWGQGTQVTVSS”, the “polyreactivity (PSR sort gate)” value was “high polyreactivity”. For “QVQLVESGGGLVQAGGSLRLSCAASGFTFYPNTMGWYRQAPGKERELVAAISSSGGRTYYADSVKGRFTISRDNAKNTVYLQMNSLKPEDTAVYYCNAAKWLTSGGLDYWGLGTQVTVSS”, the “polyreactivity (PSR sort gate)” value is given as “high polyreactivity”. The entry for “QVQLVESGGGLVQAGGSLRLSCAASGFTFYPYAMGWYRQAPGKERELVAAISNGDSTHYADSVKGRFTISRDNAKNTVYLQMNSLKPEDTAVYYCAAVRGYPSRITSYVYTYGYWGQGTQVTVSS” is “low polyreactivity”; for “QVQLVESGGGLVQAGGSLRLSCAASGFTFYPYAMGWYRQAPGTERELVAAIRGSGGSTHYADSVKGRFTISRDNAKNTVYLQMNSLKPEDTAVYYCAARIRGYRQYEYYYWGQGTQVTVSS” it is “high polyreactivity”; for “QVQLVESGGGLVQAGGSLRLSCAASGFTFYRNAMGWYRHAPGTERELVAAISWSGDSTYYADSVKGRFTISRDNAKNTVYLQMNSLKPEDTAVYYCAKERYFYYPWVTTYTSNYWGQGTQVTVSS” it is “low polyreactivity”. Turning to “QVQLVESGGGLVQAGGSLRLSCAASGFTFYRNAMGWYRQAPGKERELVARIRGTGGRTYYADSVKGRFTISRDNAKNTVYLQMNSLKPEDTAVYYCNVGRGYSFANGDYWGQGTQVTVSS”, the “polyreactivity (PSR sort gate)” value is listed as “high polyreactivity”. In the case of “QVQLVESGGGLVQAGGSLRLSCAASGFTFYRNPMGWYRQAPGKERELVAAISARGVSTYYADSVKGRFTISRDNAKNTVYLQMNSLKPEDTAVYYFSAVNYIYTGGGTYYYWGQGTQVTVSS”, the “polyreactivity (PSR sort gate)” value is “high polyreactivity”. For “QVQLVESGGGLVQAGGSLRLSCAASGFTFYRYAMGWYRPAPGKERELVAAITRVGSTYYADSVKGRFTISRDNAKNTVYLQMNSLKPEDTAVYYCNARGTVPWYGYDYWGQGTQVTVSS”, the “polyreactivity (PSR sort gate)” value is “high polyreactivity”. The entry for “QVQLVESGGGLVQAGGSLRLSCAASGFTFYRYAMGWYRQAPGKERELVAAINWSGVSTYYADSVKGRFTISRDNAKNTVYLQMNSLKPEDTAVYYCAADTYAGYNGNYWGQGTQVTVSS” is “high polyreactivity”; for “QVQLVESGGGLVQAGGSLRLSCAASGFTFYRYAMGWYRQAPGKERELVAAISSSGGTTYYADSVKGRFTISRDNAKNTVYLQMNSLKPEDTAVYYCAARGWPTWGWGYDYWGQGTQVTVSS” it is “high polyreactivity”.

As to “QVQLVESGGGLVQAGGSLRLSCAASGFTFYRYAMGWYRQAPGKERELVAAISWRGTSTYYADSVKGRFTISRDNAKNTVYLQMNSLKPEDTAVYYCAAPRNFGPYTSPRQPLYNYWGQGTQVTVSS”, the “polyreactivity (PSR sort gate)” value is on record as “high polyreactivity”.

Consider “QVQLVESGGGLVQAGGSLRLSCAASGFTFYRYAMGWYRQAPGKERELVAAITNGGGTYYADSVKGRFTISRDNAKNTVYLQMNSLKPEDTAVYYCAAKSRLPTQGLGIYYWGQGTQVSVSS”, for which the “polyreactivity (PSR sort gate)” value is “high polyreactivity”.

Consider “QVQLVESGGGLVQAGGSLRLSCAASGFTFYRYAMGWYRQAPGKERELVAAITRTGGSTYYADSVKGRFTISRDIAKNTVYLQMISLKPEDTAVYYCAARVHGTGTLKYPNYYWGQGTQVTVSS”, for which the “polyreactivity (PSR sort gate)” value is given as “high polyreactivity”. Turning to “QVQLVESGGGLVQAGGSLRLSCAASGFTFYRYAMGWYRQAPGKERELVAAITSGGDTYYADSVKGRFTISRDNAKNTVYLQMNSLKPEDTAVYYCAAAPRYGYGLASDSIFDYWGQGTQVTVSS”, the “polyreactivity (PSR sort gate)” value was “high polyreactivity”.
